According to the supplement of paper PMC6757056:
± gives the standard deviation of the averaged measurements.

B1: library; a variant is named by its letters at N, in order (parent)
chain: GCUGUCACCGGUGUAUUACCCUAGUGGUCGACCGGUCUGAUGAGUCUNNNNNNAGACGAAACAGC

How the values were obtained:
hypoxanthine [1] = variants of: B1; test: normalized RNA/DNA level with ligand (relative to sTRSVctl = 100) (log10 (% of sTRSVctl)); ligand: hypoxanthine (xanthine aptamer); higher = less ribozyme self-cleavage, higher mRNA level; conditions: ligand concentration (+) RNA-Seq: 5 mM, HEK293T, reporter: mCherry (pCS4076), ligand present: yes
Procedure, shortened: (§1)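 Ribozyme switch library plasmids linked to reporters were introduced into HEK293T cells at 4 µg per 6-well well, with ligand, if any, added 1 h before. Total RNA was extracted with EDTA 72 h later, reverse-transcribed, amplified, barcoded and sequenced. RNA level was computed from RNA over DNA reads relative to a spiked-in non-cleaving sequence or the top sequences, then scaled and log-transformed. The top set was 25 sequences, values were ×100 and log10, and the cutoff was ≥100 DNA reads.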

hypoxanthine [2] = variants of: B1; test: normalized RNA/DNA level without ligand (relative to sTRSVctl = 100) (log10 (% of sTRSVctl)); ligand: hypoxanthine (xanthine aptamer); higher = less ribozyme self-cleavage, higher mRNA level; conditions: HEK293T, reporter: mCherry (pCS4076), ligand present: no
Procedure, shortened: as §1

Row | Variant | normalized RNA/DNA level with ligand (log10) (hypoxanthine [1]) | normalized RNA/DNA level without ligand (log10) (hypoxanthine [2])
1 | GCUGUCACCGGUGUAUUACCCUAGUGGUCGACCGGUCUGAUGAGUCUCACUAGAGACGAAACAGC | 1.901 ± 0.0088 | 1.759 ± 0.0057
2 | GCUGUCACCGGUGUAUUACCCUAGUGGUCGACCGGUCUGAUGAGUCUGACUAGAGACGAAACAGC | 1.837 ± 0.011 | 1.47 ± 0.045
3 | GCUGUCACCGGUGUAUUACCCUAGUGGUCGACCGGUCUGAUGAGUCUCACUAUAGACGAAACAGC | 1.908 ± 0.018 | 1.845 ± 0.013
4 | GCUGUCACCGGUGUAUUACCCUAGUGGUCGACCGGUCUGAUGAGUCUUACUAUAGACGAAACAGC | 1.89 ± 0.027 | 1.83 ± 0.05
5 | GCUGUCACCGGUGUAUUACCCUAGUGGUCGACCGGUCUGAUGAGUCUCACUCAAGACGAAACAGC | 1.93 ± 0.024 | 1.89 ± 0.033
6 | GCUGUCACCGGUGUAUUACCCUAGUGGUCGACCGGUCUGAUGAGUCUAACUCAAGACGAAACAGC | 1.975 ± 0.012 | 1.88 ± 0.023
7 | GCUGUCACCGGUGUAUUACCCUAGUGGUCGACCGGUCUGAUGAGUCUGACUCAAGACGAAACAGC | 1.97 ± 0.029 | 1.892 ± 0.0056
8 | GCUGUCACCGGUGUAUUACCCUAGUGGUCGACCGGUCUGAUGAGUCUCACUCCAGACGAAACAGC | 1.93 ± 0.021 | 1.92 ± 0.063
9 | GCUGUCACCGGUGUAUUACCCUAGUGGUCGACCGGUCUGAUGAGUCUAACUCCAGACGAAACAGC | 2 ± 0.067 | 1.922 ± 0.011
10 | GCUGUCACCGGUGUAUUACCCUAGUGGUCGACCGGUCUGAUGAGUCUGACUCCAGACGAAACAGC | 1.989 ± 0.019 | 1.96 ± 0.04
11 | GCUGUCACCGGUGUAUUACCCUAGUGGUCGACCGGUCUGAUGAGUCUUACUCCAGACGAAACAGC | 2 ± 0.058 | 1.964 ± 0.011
12 | GCUGUCACCGGUGUAUUACCCUAGUGGUCGACCGGUCUGAUGAGUCUCACUCGAGACGAAACAGC | 1.99 ± 0.066 | 1.92 ± 0.062
13 | GCUGUCACCGGUGUAUUACCCUAGUGGUCGACCGGUCUGAUGAGUCUUACUCGAGACGAAACAGC | 1.929 ± 0.009 | 1.72 ± 0.072
14 | GCUGUCACCGGUGUAUUACCCUAGUGGUCGACCGGUCUGAUGAGUCUCACUCUAGACGAAACAGC | 1.963 ± 0.0079 | 1.91 ± 0.026
15 | GCUGUCACCGGUGUAUUACCCUAGUGGUCGACCGGUCUGAUGAGUCUAACUCUAGACGAAACAGC | 1.9 ± 0.039 | 1.898 ± 0.015
16 | GCUGUCACCGGUGUAUUACCCUAGUGGUCGACCGGUCUGAUGAGUCUGACUCUAGACGAAACAGC | 1.94 ± 0.092 | 1.93 ± 0.029
17 | GCUGUCACCGGUGUAUUACCCUAGUGGUCGACCGGUCUGAUGAGUCUUACUCUAGACGAAACAGC | 1.915 ± 0.0075 | 1.91 ± 0.026
18 | GCUGUCACCGGUGUAUUACCCUAGUGGUCGACCGGUCUGAUGAGUCUCACUGAAGACGAAACAGC | 1.95 ± 0.049 | 1.83 ± 0.022
19 | GCUGUCACCGGUGUAUUACCCUAGUGGUCGACCGGUCUGAUGAGUCUUACUGAAGACGAAACAGC | 1.95 ± 0.019 | 1.74 ± 0.02
20 | GCUGUCACCGGUGUAUUACCCUAGUGGUCGACCGGUCUGAUGAGUCUCACUGCAGACGAAACAGC | 1.96 ± 0.037 | 1.909 ± 0.0035
21 | GCUGUCACCGGUGUAUUACCCUAGUGGUCGACCGGUCUGAUGAGUCUGACUGCAGACGAAACAGC | 1.905 ± 0.01 | 1.66 ± 0.052

Row | Variant | normalized RNA/DNA level with ligand (log10) (hypoxanthine [1]) | normalized RNA/DNA level without ligand (log10) (hypoxanthine [2])
22 | GCUGUCACCGGUGUAUUACCCUAGUGGUCGACCGGUCUGAUGAGUCUUACUGCAGACGAAACAGC | 1.97 ± 0.072 | 1.846 ± 0.0079
23 | GCUGUCACCGGUGUAUUACCCUAGUGGUCGACCGGUCUGAUGAGUCUUACUGGAGACGAAACAGC | 1.884 ± 0.015 | 1.491 ± 0.0069
24 | GCUGUCACCGGUGUAUUACCCUAGUGGUCGACCGGUCUGAUGAGUCUCACUGUAGACGAAACAGC | 2 ± 0.021 | 1.97 ± 0.022
25 | GCUGUCACCGGUGUAUUACCCUAGUGGUCGACCGGUCUGAUGAGUCUGACUGUAGACGAAACAGC | 1.89 ± 0.033 | 1.8123 ± 0.00033
26 | GCUGUCACCGGUGUAUUACCCUAGUGGUCGACCGGUCUGAUGAGUCUCACUUAAGACGAAACAGC | 1.87 ± 0.057 | 1.779 ± 0.0095
27 | GCUGUCACCGGUGUAUUACCCUAGUGGUCGACCGGUCUGAUGAGUCUGACUUAAGACGAAACAGC | 1.88 ± 0.0036 | 1.84 ± 0.023
28 | GCUGUCACCGGUGUAUUACCCUAGUGGUCGACCGGUCUGAUGAGUCUUACUUAAGACGAAACAGC | 1.95 ± 0.026 | 1.88 ± 0.033
29 | GCUGUCACCGGUGUAUUACCCUAGUGGUCGACCGGUCUGAUGAGUCUAACUUCAGACGAAACAGC | 1.96 ± 0.023 | 1.96 ± 0.023
30 | GCUGUCACCGGUGUAUUACCCUAGUGGUCGACCGGUCUGAUGAGUCUGACUUCAGACGAAACAGC | 1.9476 ± 0.0019 | 1.98 ± 0.098
31 | GCUGUCACCGGUGUAUUACCCUAGUGGUCGACCGGUCUGAUGAGUCUUACUUCAGACGAAACAGC | 1.98 ± 0.05 | 2 ± 0.058
32 | GCUGUCACCGGUGUAUUACCCUAGUGGUCGACCGGUCUGAUGAGUCUCACUUGAGACGAAACAGC | 1.95 ± 0.1 | 1.88 ± 0.043
33 | GCUGUCACCGGUGUAUUACCCUAGUGGUCGACCGGUCUGAUGAGUCUUACUUGAGACGAAACAGC | 1.929 ± 0.0075 | 1.72 ± 0.064
34 | GCUGUCACCGGUGUAUUACCCUAGUGGUCGACCGGUCUGAUGAGUCUGACUUUAGACGAAACAGC | 1.923 ± 0.017 | 1.91 ± 0.056
35 | GCUGUCACCGGUGUAUUACCCUAGUGGUCGACCGGUCUGAUGAGUCUAAGAACAGACGAAACAGC | 1.9 ± 0.032 | 1.7418 ± 0.00032
36 | GCUGUCACCGGUGUAUUACCCUAGUGGUCGACCGGUCUGAUGAGUCUCAGAAGAGACGAAACAGC | 1.9 ± 0.028 | 1.59 ± 0.021
37 | GCUGUCACCGGUGUAUUACCCUAGUGGUCGACCGGUCUGAUGAGUCUCAGAAUAGACGAAACAGC | 1.9 ± 0.034 | 1.64 ± 0.072
38 | GCUGUCACCGGUGUAUUACCCUAGUGGUCGACCGGUCUGAUGAGUCUUAGACAAGACGAAACAGC | 1.9 ± 0.038 | 1.857 ± 0.0097
39 | GCUGUCACCGGUGUAUUACCCUAGUGGUCGACCGGUCUGAUGAGUCUCAGACCAGACGAAACAGC | 2.04 ± 0.037 | 1.96 ± 0.045
40 | GCUGUCACCGGUGUAUUACCCUAGUGGUCGACCGGUCUGAUGAGUCUGAGACCAGACGAAACAGC | 1.96 ± 0.048 | 1.82 ± 0.017
41 | GCUGUCACCGGUGUAUUACCCUAGUGGUCGACCGGUCUGAUGAGUCUUAGACCAGACGAAACAGC | 1.976 ± 0.016 | 1.92 ± 0.0073
42 | GCUGUCACCGGUGUAUUACCCUAGUGGUCGACCGGUCUGAUGAGUCUCAGACGAGACGAAACAGC | 1.98 ± 0.035 | 1.8 ± 0.081
